Where “and” joins values, the source holds several entries; their conditions need not be identical. Equal entries are not always repeated.
Key:
[1] = chitin RBV assay (chitin hydrolysis); format: biochemical; details: 37° C., 24 hours
Procedure: Chitin RBV assay. Carboxymethyl-substituted chitin labeled covalently with Remazol Brilliant Violet (CM-Chitin-RBV) (Loewe Biochemica, Sauerlach, Germany) was used to measure chitinolytic activity (Wirth S J, Wolf G A, (1992) Soil Biol Biochem v24 p511-519). A solution of 2 mg/ml CM-chitin-RBV (50 μL) was added to hAMCase (AMCase) or mNC (cyno chitintase) in a total volume of 200 μL of buffer (0.2 M citrate phosphate buffer pH 5.0) in 96-well v-bottom plates (Costar Cat. No. 3894 Acton, Mass.). The plates were sealed with low evaporation lids and incubated at 37° C. for 24 hours. The reaction was terminated by the addition of 1 N HCl, causing precipitation of the non-degraded high-polymeric substrate. The plates were cooled on ice for 10 min. and centrifuged (1400 g, 10 min). The supernatants (100 μL) were transferred to 96-well plates (Costar cat. No. 3690) and measured at […] (Molecular devices).
Chitin hydrolysis. We employed the chitin RBV assay, a soluble, dye-labelled and acid-precipitable assay for endo-chitinases to determine if mNC and hAMCase hydrolyze chitin (Wirth S J, Wolf G A (1992) Soil Biol Biochem 24, 511-519). […] The released amount of soluble chitin oligomers was dose-dependent on enzyme concentration (FIG. 16).

[2] = chitinase enzyme assay in conditioned media of transfected COS cells; format: biochemical
Procedure: Enzymatic activity assays were performed using cloned mNC, engineered hNC (stop codon substituted to allow for translation of full protein), engineered mut-hNC (truncated), and cloned hAMCase in COS cells. The full length mNC construct was expressed and the chitinase activity of the resultant gene products was measured.
Cultured conditions were as follows: COS cells were cultured in DME media and were transfected at 90% confluency using TransIT®-LT1 transfection reagent (MIRUS). 24 hours post transfection, cell culture media was replaced with serum-free R1CD1 media. Conditioned media, containing secreted enzyme, was collected 48 hours later. Chitinase enzyme assays were performed directly from these samples, as follows.

[3] = apparent Km of purified chitinases with increasing chitobiose-4MU; format: biochemical; details: for Km: purified 6-histidine tagged enzyme
From the text: hAMCase, engineered with a C-terminal 6-histidine tag, was purified to a single band on SDS-PAGE from a stable CHO cell line transfected with cDNA encoding this hAMCase construct by nickel chromatography. Similarly, mNC, engineered with a C-terminal 6-histidine tag, was purified to a single band on an SDS-PAGE from COS cells transfected with cDNA encoding this mNC construct by nickel chromatography. The enzymatic activity of recombinant hAMCase to mNC was compared, as follows.

[4] = chitinase kcat and Km determination, hydrolysis of chitobiose-4MU; format: biochemical; details: for chitobioside-4MU substrate concentration showing substrate inhibition / apparent transglycosylation: hAMCase 1 nM, mNC 0.25 nM
Procedure: Km and Kcat values for hAMCase and mNC. To better understand the mechanism for the increased specific activity of mNC compared to hAMCase, we measured the km and kcat for each enzyme. The progress curves of hAMCase (1 nM) hydrolysis reactions for 4MU product formation were linear during the first 10 min. for chitobioside-4MU substrate concentrations between 0 to 75 μM (data not shown). The rate of product formation was slower at the highest substrate concentration tested, 150 μM, compared to 75 μM, reflecting substrate inhibition due to transglycosylation, consistent with a previous report (Chou et al. (2006) Biochemistry 45, 4444-4454). We confirmed the high substrate concentration was not due to inner filter effect. In separate control experiments, the 4MU fluorescent signal was not quenched by chitobiose-4MU up to 600 μM.
The initial rates within the first 10 min. of hAMCase (1 nM) or mNC (0.25 nM) were plotted against the concentration of chitobiose-4MU that were in the linear range for both enzymes. […] The same Km and Kcat values for each enzyme were obtained from Line-weaver Burke plots of the linear curves.

[5] = pH profile of purified chitinases; format: biochemical; details: for activity at lower pH values: pH 2.0 and 3.5; for pH of maximal activity: pH 2 to pH 8, 5 μM chitobiose-4MU; for slope of the initial rate at the various enzyme concentrations at maximal activity: pH 5.0, 5 μM chitobiose-4MU
Procedure: Analysis of the pH profiles of hAMCase and mNC were performed by incubating various concentrations of purified hAMCase (ranging from 0.05 nM to 50 nM) or mNC (ranging from 0.018 nM to 5 nM) with 5 μM chitobiose-4MU substrate in 0.1 M citrate phosphate buffer containing 0.005% Brij35 prepared at pH 2 to pH 8. The slope of the initial enzyme rate for each of the enzyme concentrations was then compared at each pH. […] The slope of the initial rate at the various enzyme concentrations measured for this maximal activity was 13.1 for mNC and 0.45 for hAMCase. This maximal value was set to 100% for each enzyme and the relative activity, for comparison of the activity at different pH values.

[6] = relative specific activity of purified chitinases; format: biochemical; details: 5 μM chitobiose-4MU, 0.1 M citrate phosphate
Procedure: As shown in FIGS. 15A-15D, further characterization of the purified mNC was performed by measuring the relative specific activity, pH profiling, and inhibition by an art-recognized chitinase inhibitor, methylallosamidin. Briefly, various concentrations of mNC, ranging from 0.156 nM to 5 nM, or hAMCase, ranging from 1.56 nM to 50 nM, were incubated with 5 μM chitobiose-4MU substrate in 0.1 M citrate phosphate, 0.0005% Brij35 buffer. The relative specific activity of each enzyme was then determined by measuring the initial rate of enzyme activity versus the enzyme concentration.

[7] = biological target: T1, hAMCase (Homo sapiens, UniProt Q9BZP6); assay: methylallosamidin inhibition of hAMCase, chitobiose-4MU substrate; format: biochemical; details: 2 nM hAMCase, 5 μM chitobiose-4MU
T1 construct: 6-histidine tag (C); made in house
T1 sequence (Q9BZP6 22-476 N45D/D47N/R61M/I339V/F354S/V432G): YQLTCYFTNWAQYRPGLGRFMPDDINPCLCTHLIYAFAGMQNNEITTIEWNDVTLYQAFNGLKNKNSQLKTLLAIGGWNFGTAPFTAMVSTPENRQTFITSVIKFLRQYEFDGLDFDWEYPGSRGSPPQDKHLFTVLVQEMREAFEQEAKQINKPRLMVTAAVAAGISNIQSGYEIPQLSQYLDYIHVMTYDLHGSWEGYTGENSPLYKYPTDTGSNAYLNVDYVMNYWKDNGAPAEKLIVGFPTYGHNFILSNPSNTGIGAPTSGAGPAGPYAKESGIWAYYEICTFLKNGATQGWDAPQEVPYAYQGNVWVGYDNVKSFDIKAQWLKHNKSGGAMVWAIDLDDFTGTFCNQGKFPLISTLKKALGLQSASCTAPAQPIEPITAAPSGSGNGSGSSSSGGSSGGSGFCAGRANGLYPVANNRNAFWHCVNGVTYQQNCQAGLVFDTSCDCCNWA
Procedure: (§1) Analysis of hAMCase and mNC inhibition by methylallosamidin was performed by incubating various concentrations of methylallosamidin with 2 nM mNC or 2 nM hAMCase for 10 minutes prior to the addition of 5 μM chitobiose-4MU substrate. Maximal activity was determined by the initial rate of the enzyme activity without the inhibitor methylallosamidin. The percentage of enzyme activity was then calculated and plotted for each concentration of methylallosamidin compared to maximal activity. For the data shown in FIGS. 15C and 15D, the maximal initial rate (RFU/sec) is 1.1 for hAMCase and 21.0 for mNC. […] Conversely, 10 times more methylallosaminidin was required to inhibit mNC than hAMCase.

[8] = system: mNC; assay: methylallosamidin inhibition of mNC, chitobiose-4MU substrate; format: biochemical, cynomolgus monkey
Procedure: as §1

[9] = Table 1, pH 5.0 citrate phosphate buffer
[10] = Table 1, pH 5.0 citrate phosphate buffer, read-out: Km
[11] = text, Michaelis-Menten fit, hAMCase 1 nM or mNC 0.25 nM, read-out: Km app

| chitobioside-4MU substrate concentration showing substrate inhibition / apparent transglycosylation [4] [µM] | Compound | chitin hydrolysis [1] | enzymatic (chitinase) activity [2] | lower apparent Km for chitobiose-4MU compared to hAMCase ([3]; mNC versus hAMCase) [fold] | Km [3] [µM] | kcat [4, 9] | Km [4, 10] [µM] | kcat ([4]; summary text b32) | kcat ([4]; text b472, unit not given) | Km [4, 11] | activity at lower pH values [5] | pH of maximal activity [5] | slope of the initial rate at the various enzyme concentrations at maximal activity [5] | relative specific activity [6] [units/sec/nM] | Km ([4]; text, Michaelis-Menten fit, hAMCase 1 nM or mNC 0.25 nM, listed as AMCase, read-out: Km app) [µM] | inhibition of hAMCase with increasing concentrations of methylallosamidin [7] | IC50 ([7]; 10 minutes preincubation) [nM] | inhibition of mNC with increasing concentrations of methylallosamidin ([8]; 2 nM mNC, 5 μM chitobiose-4MU) | IC50 ([8]; 2 nM mNC, 10 minutes preincubation, 5 μM chitobiose-4MU) [nM] | amount of inhibitor required to inhibit mNC relative to hAMCase ([8]; mNC versus hAMCase) [times] |
| --- | --- | --- | --- | --- | --- | --- | --- | --- | --- | --- | --- | --- | --- | --- | --- | --- | --- | --- | --- | --- |
| ≥ 37 | mNC: macaque novel chitinase cloned from cynomolgus monkey, SEQ ID NO:2 | generated soluble chitin oligomers | significant enzymatic activity | 10 | 2 | 31.8 ± 3.2 s − 1 | 6 ± 1 | about 32 s^−1 | 31.8+/−3.2 | ~6 µM and 6 µM | lower activity, but retain significant activity | 5.0 | 13.1 | 14.4 | – | – | – | – | – | – |
| 150 | hAMCase: human Acidic Mammalian Chitinase, SEQ ID NO:29 | generated soluble chitin oligomers | – | – | 20 | 3.0 ± .35 s − 1 | 42 ± 6 | about 3 s^−1 | 3.0+/−0.35 | ~42 µM | lower activity, but retain significant activity | 5.0 | 0.45 | 0.4 | 42 | – | – | – | – | – |
| – | COC[C@H]1O[C@@H](O[C@H]2[C@@H](O)[C@@H](NC(C)=O)[C@H](OC3C(O)C4N=C(N(C)C)OC4C3CO)O[C@@H]2CO)[C@H](NC(C)=O)[C@H](O)[C@@H]1O (some centres unmarked) [methylallosamidin] | – | – | – | – | – | – | – | – | – | – | – | – | – | – | dose-dependent inhibition | 5.5 | dose-dependent inhibition | 58 | 10 |
